How the values were obtained:
Assay in all cases: ELISA
[1] = target: His-tagged p53(ΔC30) purified from bacteria (human, UniProt P04637 1-363)
[2] = target: Flag-p53 purified from insect cells (unacetylated) (human, UniProt P04637 1-393)
[3] = target: His-tagged p53 purified from bacteria (human, UniProt P04637 1-393)

Measured: binding result

B1: untagged Mdm2(10–139) (domain or fragment)
chain: GSMTDGAVTTSQIPASEQETLVRPKPLLLKLLKSVGAQKDTYTMKEVLFYLGQYIMTKRLYDEKQQHIVYCSNDLLGDLFGVPSFSVKEHRKIYTMIYRNLVVVNQQESSDSGTSVSENRCHLEGGSDQKDLV
binds: all assays above
